Where no end group is shown, it is not given here. [ ]: non-standard residue; d: D form. pS = N[C@@H](COP(=O)(O)O)C(=O)O
Legend:
G11 = test: ITC
A3 = test: ITC

In the case of RPHFPQF[pS]YSAS [phosphorylated Akt peptide], the Kd (G11) is reported as 18.1 nM and the Kd (A3) is reported as 31.8 nM.

From publication PMC11681868 (2024)
